± gives the uncertainty stated by the source.
Assay: amyloid nucleation score (Sup35N fusion, yeast selection) (log enrichment); library NNK1; higher = more nucleation; inactive = no reads after selection
Procedure, shortened: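 The nucleation score is a DiMSum log enrichment of output over input reads, centred on the mode score of non-aggregating sequences. Sequences under 100 input reads were excluded, and reads came from Illumina sequencing of plasmid inserts. Psi-negative yeast expressing Sup35N fused to peptides of 20 random codons were induced with 100 μM copper sulfate for 24 hours and grown 7 days at 30°C on medium lacking adenine and uracil. Random libraries had three technical output replicates.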

Row | Substance | amyloid nucleation score
1 | YQVPKKVAATIGTAWARKRA | 0.279 ± 0.29
2 | NQTSLAILSRSSQGHGTKVY | 0.623 ± 0.95
3 | SLHILISH | 0.537 ± 0.39
4 | VVSFLLHPCDFRSWFCGCIW | -0.226 ± 0.93
5 | LSVNICKKY | 3.5 ± 0.1
6 | YMNTFVIRSMHSLLNGYAFS | 0.429 ± 0.88
7 | SNIKLGFLRSLHIMKTSSDL | -0.113 ± 0.41
8 | FLSRCGWAYVMV | -0.493 ± 0.26
9 | YFSDKVSSAFT | 0.318 ± 0.37
10 | TCIISTDGCMQAGHFVGDRR | -0.69 ± 0.54
11 | IIRGRNVNSVRSNYYMGRFY | 2.72 ± 0.095
12 | IFSGWCVRVFCSFLKHNCLN | -0.408 ± 0.47
13 | HNFLLYVSSYSFFHRLFMLH | 0.149 ± 0.46
14 | YSGHWLVHLPCHHQVR | -0.028 ± 0.46
15 | VPNFDQSNGQCIGDTVLMWC | 1.74 ± 0.49
16 | DLIRPLSCTRVLSPNFLCS | -0.54 ± 0.66
17 | RDMRLLAFRLPIRRFTRGST | -0.097 ± 0.44
18 | FLTTLGWSYHRQNQLRMPRF | 2.24 ± 0.16
19 | FLRCRFLYQQ | 0.4 ± 0.39
20 | YWKMRCM | 3.47 ± 0.19
21 | IDKNVIIIKVLCMLIVFPTG | -0.771 ± 0.82
22 | WVTSSAFEE | 0.277 ± 0.7
23 | WEVSPIGVPYSY | -0.117 ± 0.57
24 | VNTIQASMYW | 1.22 ± 0.62
25 | RLYRWPIWWWVSLSEMGISQ | -0.205 ± 0.35
26 | YILACAKVTEDPVSVSMKCA | -0.278 ± 0.74

Row | Substance | amyloid nucleation score
27 | KCRGCSMMRAS | 1.84 ± 0.5
28 | HTHESNRPHYYCGADCLPKD | 2.71 ± 0.14
29 | NSPKYLKLSCSTLLTALLGR | 1.16 ± 0.28
30 | RYHSPEYTARTLMG | 0.264 ± 0.44
31 | ISGYQS | 0.088 ± 0.64
32 | ISLPLTPN | -0.492 ± 0.36
33 | KDCCMLDIYVEAWSGSFGRK | 1.44 ± 0.2
34 | RFGGD | -0.388 ± 0.57
35 | WYGDSPECEV | 0.141 ± 0.73
36 | YLLTHQRKTSLQE | 1.06 ± 0.97
37 | FRRLMLWSCSV | -0.098 ± 1.3
38 | TAGLIILINSYASGRLTGDP | 6.639 ± 0.049
39 | RNNQSHGMNYFFESCVVFYC | 7.8 ± 0.047
40 | QYAIFRLSKTWIIHSMDKNA | 0.269 ± 0.21
41 | PWTSHVNFRSSGYLSNCLNF | -0.145 ± 0.64
42 | TTIYRY | 0.234 ± 0.9
43 | VRNNYSTSIRVVRMAIMWPG | 5.83 ± 0.078
44 | GLKGDIWDMGYSFGWRDGDA | 0.297 ± 0.51
45 | SCYVWDCENGSTLFIFVARR | inactive
46 | LLWGATFCSSIQPDYNLSPV | -0.095 ± 0.44
47 | TLGVMEGRNSDSLTVCRVGS | 1.06 ± 0.5
48 | YFFDIGVDSCMRFDIRVVET | 1.77 ± 0.6
49 | SYARTFMDLHNGSRH | -0.013 ± 0.25
50 | PNTYGGIMECYV | -0.233 ± 0.42
51 | RSHGKAEFEHVGLKFIAG | -0.903 ± 1.7
52 | FHHCFIQTSSDAVSSGLDFE | 0.644 ± 0.78

Row | Substance | amyloid nucleation score
53 | IRYCFCKIK | 0.312 ± 1.1
54 | VYQKWLG | -0.778 ± 0.46
55 | RDIRWITQEADGYLELRHSF | -0.085 ± 0.73
56 | TSHSCHIVGAFMKKCWFSST | -0.057 ± 0.65
57 | FCLFKFDCSLSWPQVYRYRL | 1.09 ± 0.36
58 | QYYFARIREFLSIQFIAWYC | 0.172 ± 0.32
59 | HMVFC | -0.446 ± 0.33
60 | DTGLRLD | 0.536 ± 0.54
61 | APAAIINFLDPHICARMAMF | -0.513 ± 1.3
62 | WLPMPSV | 0.411 ± 0.47
63 | RAVGSDWGKVVFLLMNSEES | 0.212 ± 0.31
64 | LCEMLF | -0.202 ± 0.61
65 | FLPMSLGWVHKQLIFSPRWY | 1 ± 0.66
66 | HPVIADDLSYAAVIKRYLGV | 0.267 ± 0.41
67 | SAYSILSTMFIYFVKSQGTD | 3.38 ± 0.058
68 | NLKCF | 0.905 ± 0.47
69 | FILSEFSNRF | 0.104 ± 0.34
70 | MGGTLRNRRGTKVRSELGGD | -0.817 ± 1.7
71 | NNMLILFTCGFYYKVYSPVQ | 3.18 ± 0.17
72 | YLRFTV | 2.57 ± 0.27
73 | LLASRPEG | -0.437 ± 0.35
74 | VDVCCDGYRYLW | -0.754 ± 0.39
75 | GATTMFEVGICNENRKVYVE | -0.179 ± 0.29
76 | GTGSSAVDVFSGLMCGTDVL | -0.145 ± 0.46
77 | STGLACSSWQAFIYLCLLYY | -0.516 ± 1.1
78 | SGGPWVNCNFNT | 0.494 ± 0.47

Row | Substance | amyloid nucleation score
79 | RPQYLCAAVHEVQRFGHNR | -0.79 ± 0.51
80 | DGKHWTDYLVMY | 1.5 ± 0.47
81 | TMNNFVLKSAFLKSAFTTGV | -1.04 ± 2.1
82 | IMLLLREKLASIRMMQECQL | inactive
83 | PRTTMMAINQVLTGTLEASW | -1.01 ± 0.95
84 | GCFMLSSGLGISEPGSFWWG | 0.224 ± 0.53
85 | AFVEVFHQGLLRSAMSQMVS | -0.378 ± 0.74
86 | DLILPRRLSYGYLPVLEGPS | -0.222 ± 0.76
87 | LNSYVRG | 0.201 ± 0.3
88 | TWNAFRRLWVTSDGYTRVLT | 1.23 ± 0.41
89 | SHEGTGLGMGAVG | -0.01 ± 0.36
90 | YWICRDTGSYDFCMMGMGKA | 0.335 ± 0.34
91 | RRYCKLLVWRQLTSYHGRQA | 0.527 ± 0.49
92 | SSQVIVCDVYSQVTRFSFCE | 0.557 ± 0.29
93 | VVSWDS | -0.015 ± 0.41
94 | RKNTDVTENEYRWAIF | -0.522 ± 1.9
95 | IVRVLCSLLIQFKVNAY | inactive
96 | IWCNMSFNIRV | 4.4 ± 0.088
97 | LYVMRKSDMMLDFRNAANVG | -0.142 ± 0.23
98 | SRLVFGHTNRRNSIEQTELL | inactive
99 | LLAIHAYREVLTGPGCGYLT | 1.15 ± 0.66
100 | VVSNTGSFSPVRMR | -0.117 ± 0.42
101 | ILQSFSTVEHFEDLL | 0.58 ± 1.2
102 | NESGSARFSPVDSYGFGSGC | -0.894 ± 0.75
103 | EKRFFVSLVNVYLDL | 4.57 ± 0.071
104 | MSQAALLVLGNRFGNNDIVG | -0.078 ± 0.44

Row | Substance | amyloid nucleation score
105 | SLWRDKDISWGGKSYVHVPS | 1.14 ± 0.75
106 | HVHTDSIDRVWRVLFTIKSK | 0.776 ± 0.61
107 | SIVMYDTNMTFRWSAYGRKN | 2.13 ± 0.096
108 | FVSWLFVS | -1.4 ± 0.98
109 | APMNVLEVTFSYSADLTVVV | 0.167 ± 0.79
110 | RYARLMYASACCSSC | -0.404 ± 0.52
111 | KNKPL | 2.72 ± 0.15
112 | VYLYMPPIDLL | -0.021 ± 0.46
113 | SVDIAINALS | 0.492 ± 0.41
114 | KLYPFL | 0.565 ± 0.32
115 | VGWFSNESWYLAVNDYGPA | 0.335 ± 0.3
116 | GTSMRFGGGVIF | -0.721 ± 0.49
117 | SGSQY | -1.26 ± 1.7
118 | LVYLA | -0.569 ± 0.87
119 | GMLDAY | inactive
120 | EDGSQ | 0.532 ± 0.42
121 | VYGFDRFKVRRMGESLWWS | inactive
122 | YYLIMP | 0.322 ± 0.41
123 | TDARTR | 1.15 ± 0.36
124 | NNGKSIPFPGGARKVSLGSG | 0.087 ± 0.26
125 | LEALGYLWDKWAYYAMVMRS | 0.836 ± 0.97
126 | WFFRLLAMSRRTEVAGTSPL | 0.941 ± 0.65
127 | LSLNIYCMRS | 7.155 ± 0.045
128 | RFLLLPAHPGPGVSMVYRYL | 0.077 ± 0.9
129 | LRIFSA | 1.22 ± 0.8
130 | FDCVMLISHHCVILCCFSDM | 0.205 ± 1.1

Row | Substance | amyloid nucleation score
131 | YNFFGCVCDAPPPKCLVYFM | 7.596 ± 0.075
132 | FCSYLFMLATTLHQAWFHF | 1.1 ± 0.72
133 | ILPRNFVSTNVANRFIEGSS | 0.932 ± 0.66
134 | VASRTLLCSLGRKRVVVCGC | -0.667 ± 0.29
135 | DRSDDGHNESLWAVLMRHKV | 0.315 ± 0.52
136 | VIRYSIKSCFLYIKTYQGYM | -0.907 ± 0.43
137 | WHQEWRKWADKGLAIRT | 0.836 ± 0.97
138 | RVDTL | 0.694 ± 1.1
139 | LPWLPLKSRYALTAKFTCEP | 0.261 ± 1.2
140 | GFVEYYRVLTYDKM | 1.22 ± 0.88
141 | DTPNISAFYLWNLRKRLMIF | -0.023 ± 0.31
142 | ISPYPPRHLLQWVCKGE | 0.034 ± 0.68
143 | YWNRRYIGTPLNM | -1.73 ± 2.7
144 | DRKVGNHLFTRVCDEATMLM | 1.75 ± 0.41
145 | WFIAL | -0.068 ± 0.61
146 | VKALGHLRPTWLEKGCNHA | 0.289 ± 0.25
147 | IIPPV | inactive
148 | ANGILV | 0.499 ± 0.28
149 | KLSGCMISKILFSPCWRD | 5.896 ± 0.058
150 | RGAQARSQCCMVVMSVESRS | 0.628 ± 0.46
151 | MSMMLTRIAHTLSESWRTHW | -0.09 ± 0.97
152 | KCSSLLSHMWLCITLVTVLA | 0.357 ± 0.57
153 | HYRYFCGLTYVDSAARLQGG | -1.5 ± 1.8
154 | NYLGLLSEAVSRGVQLGDAT | inactive
155 | IGPGTWGLSLYRDRILITTM | -0.037 ± 0.89
156 | AESSLLSLIVFNTNYFEAGQ | 6.753 ± 0.046

Row | Substance | amyloid nucleation score
157 | SSKMNILP | 0.51 ± 0.26
158 | RRIGIGYGLLCRAWAYLYVL | -0.477 ± 1.2
159 | HAAYTEVFILLLNDNILPHL | -0.393 ± 0.45
160 | STEIATKGGGQLGIISTNDA | 0.254 ± 0.56
161 | TIALM | 0.335 ± 0.33
162 | AVCDKVLRSVEWIFPGLNDS | -0.496 ± 0.51
163 | VNSLVVLF | 1.84 ± 0.23
164 | MHRGALSTMQHLHEISLLSC | 0.886 ± 0.52
165 | YWDEIRCNSKNFDPCPFKAS | 0.54 ± 0.19
166 | IVVFFAPDFCGRQLYDKSKS | 4.85 ± 0.11
167 | VLTRMDKFGARQTSVTQEAG | 0.102 ± 0.62
168 | NARYYYQSAIADVI | 0.64 ± 0.29
169 | DCCGFNFYWISPRFHLRECL | 0.831 ± 0.27
170 | YCAKNCEGFGRVYISG | -2.42 ± 2.7
171 | IKGQGVKVSVVLTAGTCRLW | 1.17 ± 0.19
172 | TFIYSRECRRTSVWQPFNNR | -0.704 ± 0.65
173 | GSKSFPSSGSSMQAAGTSSG | -0.069 ± 0.36
174 | SFSVVCRLKRAFGLAVIVRR | 0.184 ± 1.2
175 | QIAVWPSYFSGDIGDMSRKG | 0.017 ± 0.56
176 | FRRLHRYRWDNECLGMQVGS | -1.48 ± 2.1
